One data set addresses T1, Spf1p (Saccharomyces cerevisiae, UniProt P39986).
T1 construct: gene SPF1; full length with C-terminal FLAG-RGS10His tag; expressed in spf1-deleted yeast (BY4741 background), purified, re-lipidated in mixed yeast polar lipid/detergent micelles; persistent dimer seen on SDS-PAGE
T1 sequence (P39986 1-1215): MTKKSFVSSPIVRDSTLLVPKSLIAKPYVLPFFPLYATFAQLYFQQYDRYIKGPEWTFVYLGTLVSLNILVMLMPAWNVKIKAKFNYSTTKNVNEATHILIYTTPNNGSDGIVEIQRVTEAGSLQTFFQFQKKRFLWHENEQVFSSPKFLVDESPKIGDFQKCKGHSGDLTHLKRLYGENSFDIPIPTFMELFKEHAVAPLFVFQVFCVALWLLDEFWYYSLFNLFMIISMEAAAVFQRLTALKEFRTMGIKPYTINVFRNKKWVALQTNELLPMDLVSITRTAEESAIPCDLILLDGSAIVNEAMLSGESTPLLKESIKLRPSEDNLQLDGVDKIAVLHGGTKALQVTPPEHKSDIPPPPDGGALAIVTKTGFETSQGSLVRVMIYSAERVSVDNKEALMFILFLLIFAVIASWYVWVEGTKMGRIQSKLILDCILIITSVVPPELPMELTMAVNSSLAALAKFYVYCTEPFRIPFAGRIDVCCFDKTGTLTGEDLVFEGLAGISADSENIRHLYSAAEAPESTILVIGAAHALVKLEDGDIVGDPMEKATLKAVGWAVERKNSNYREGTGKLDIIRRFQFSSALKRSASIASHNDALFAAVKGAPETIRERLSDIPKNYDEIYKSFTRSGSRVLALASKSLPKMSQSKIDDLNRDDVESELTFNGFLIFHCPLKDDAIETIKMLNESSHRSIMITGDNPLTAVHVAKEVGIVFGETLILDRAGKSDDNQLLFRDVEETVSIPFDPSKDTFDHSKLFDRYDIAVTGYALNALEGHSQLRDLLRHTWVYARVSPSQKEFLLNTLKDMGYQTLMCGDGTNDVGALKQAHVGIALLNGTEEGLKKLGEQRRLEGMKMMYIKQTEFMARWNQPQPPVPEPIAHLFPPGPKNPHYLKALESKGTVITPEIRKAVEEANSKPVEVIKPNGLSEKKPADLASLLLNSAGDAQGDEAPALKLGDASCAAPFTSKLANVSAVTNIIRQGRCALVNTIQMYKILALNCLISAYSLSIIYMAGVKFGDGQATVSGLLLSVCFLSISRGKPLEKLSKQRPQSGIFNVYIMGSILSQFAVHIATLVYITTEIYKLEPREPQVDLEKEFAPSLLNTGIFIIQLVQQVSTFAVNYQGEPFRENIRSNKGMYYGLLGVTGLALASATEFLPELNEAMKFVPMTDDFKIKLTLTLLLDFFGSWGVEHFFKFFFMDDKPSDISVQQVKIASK
As to the kind of experiment: ATPase assay, phosphate release (molybdate colorimetric). Format: biochemical. From the text:
ATPase assay, phosphate release (molybdate colorimetric) on Spf1p | Vanadate sensitivity of Spf1p in mixed YPL/OG micelles

Data set [1] concerns the molecule itself. As to the kind of experiment: SDS-PAGE of the purified protein (band at twice the expected size); purified fractions run on SDS-PAGE gels, strongly denaturing conditions; bands of the full-length protein identified by mass spectrometry (S1 Fig).
Substrate in data set [2]: Nc1ncnc2c1ncn2[C@@H]1O[C@H](COP(=O)(O)OP(=O)(O)OP(=O)(O)O)[C@@H](O)[C@H]1O
Put plainly: ATPase assay, phosphate release (molybdate colorimetric). Format: biochemical, Saccharomyces cerevisiae. Particulars: YPL/OG micelles (0.35% w/w OG); Mg2+; Michaelis-Menten fit. From the text:
ATPase assay, phosphate release (molybdate colorimetric) on Spf1p | ATP affinity of Spf1p in YPL/OG micelles

The term Ki denotes the equilibrium dissociation constant of an inhibitor or competing ligand from its target. A higher Ki goes with weaker binding. The term Km denotes the concentration of substrate that gives half-maximal velocity.

On Spf1p, `[O]=[V]([OH])([OH])[OH]` [vanadate] returned a Ki of 10.3 ± 0.747 µM.

B1: Saccharomyces cerevisiae P5A ATPase Spf1p (enzyme, UniProt P39986 1-1215, looked up)
chain: T1 sequence (P39986 1-1215)
notes: Spf1p, P5A-type ATPase of the endoplasmic reticulum, Saccharomyces cerevisiae, full length; The abstract speaks of a purified 'functional tagged version'; removal of the tag is not mentioned; also called full length Spf1p; full-length expression construct (Spf1p); not shown: FLAG, C-terminal, kept; RGS10His, C-terminal, kept
Consider B1, for which the binding result in data set [1] is on record as “binds”. For the same molecule, in data set [2], the Km was 133.2 ± 18.9 µM.

Values taken from PMC9584430, “ATP hydrolytic activity of purified Spf1p correlate with micellar lipid fluidity and is dependent on conserved residues in transmembrane helix M1” (PLoS ONE, 2022).
